For assay [1], the target named is Sgs1-MD (Sgs1 mucin domain repeat peptide) (Drosophila melanogaster).
Assay [2] concerns the target Sgs3-MD (Sgs3 mucin domain repeat peptide) (Drosophila melanogaster).

Substitutions are numbered along the chain they refer to. Names and notes keep the numbering of the source.

B1: PGANT5B^K419D (amino acids 77–626) (enzyme)
chain: NEINTEKSLDGESGGALIMGQGFASGGISMTYPSVVLKKWFLAPSVQEAKGKPGEMGKPVKIPADMKDLMKEKFKENQFNLLASDMISLNRSLTDVRHEGCRRKHYASKLPTTSIVIVFHNEAWTTLLRTVWSVINRSPRALLKEIILVDDASERDFLGKQLEEYVAKLPVKTFVLRTEKRSGLIRARLLGAEHVSGEVITFLDAHCECTEGWLEPLLARIVQNRRTVVCPIIDVISDETFEYITASDSTWGGFNWKLNFRWYRVPSREMARRNNDRTAPLRTPTMAGGLFSIDKDYFYEIGSYDEGMDIWGGENLEMSFRVWMCGGVLEIAPCSRVGHVFRDSTPYTFPGGTTEIVNHNNARLVEVWLDDWKEFYYSFYPGARKASAGDVSDRKALRDRLKCKSFRWYLENVYPESLMPLDYYYLGEIRNAETETCLDTMGRKYNEKVGISYCHGLGGNQVFAYTKRQQIMSDDLCLDASSSNGPVNMVRCHNMGGNQEWVYDAEEKWIRHTNTGQCLQRATRDDANTPLLRPCSYGKGQQWLMESKFK
On to B1, for which the KM for the acceptor peptide Sgs1-MD, Michaelis-Menten kinetics of O-glycosylation (UDP-Glo assay), fold against PGANT5B^WT (fold decrease) in assay [1] was determined as 2. Further, the KM for the acceptor peptide Sgs3-MD, Michaelis-Menten kinetics of O-glycosylation (UDP-Glo assay), fold against the corresponding Sgs1-MD parameter in assay [2] stood at 10 fold lower.

B2: PGANT5B^WT (amino acids 77–626) (enzyme)
chain: B1 chain with D343K
For the molecule B2, in assay [2], the KM for the acceptor peptide Sgs3-MD, Michaelis-Menten kinetics of O-glycosylation (UDP-Glo assay), fold against the corresponding Sgs1-MD parameter stood at 10 fold lower.

B3: PGANT5A^WT (amino acids 77–626) (enzyme)
chain: NEINTEKSLDGESGGALIMGQGFASGGISMTYPSVVLKKWFLAPSVQEAKGKPGEMGKPVKIPADMKDLMKEKFKENQFNLLASDMISLNRSLTDVRHEGCRRKHYASKLPTTSIVIVFHNEAWTTLLRTVWSVINRSPRALLKEIILVDDASERDFLGKQLEEYVAKLPVKTFVLRTEKRSGLIRARLLGAEHVSGEVITFLDAHCECTEGWLEPLLARIVQNRRTVVCPIIDVISDETFEYITASDSTWGGFNWKLNFRWYRVPSREMARRNNDRTAPLRTPTMAGGLFSIDKDYFYEIGSYDEGMDIWGGENLEMSFRIWQCGGILEIIPCSHVGHVFRDKSPYTFPGGVAKIVLHNAARVAEVWLDEWRDFYYSMSTGARKASAGDVSDRKALRDRLKCKSFRWYLENVYPESLMPLDYYYLGEIRNAETETCLDTMGRKYNEKVGISYCHGLGGNQVFAYTKRQQIMSDDLCLDASSSNGPVNMVRCHNMGGNQEWVYDAEEKWIRHTNTGQCLQRATRDDANTPLLRPCSYGKGQQWLMESKFK
As for B3, the KM for the acceptor peptide Sgs1-MD, Michaelis-Menten kinetics of O-glycosylation (UDP-Glo assay), fold against PGANT5B^WT in assay [1] came out at 0.7 fold lower. For the same molecule, the KM for the acceptor peptide Sgs3-MD, Michaelis-Menten kinetics of O-glycosylation (UDP-Glo assay), fold against the corresponding Sgs1-MD parameter in assay [2] is 10 fold lower.

B4: PGANT5A^D419K (amino acids 77–626) (enzyme)
chain: B3 chain with D343K
For the molecule B4, the KM for the acceptor peptide Sgs1-MD, Michaelis-Menten kinetics of O-glycosylation (UDP-Glo assay), fold against PGANT5A^WT in assay [1] is 0.6 fold higher. Besides, the KM for the acceptor peptide Sgs3-MD, Michaelis-Menten kinetics of O-glycosylation (UDP-Glo assay), fold against the corresponding Sgs1-MD parameter in assay [2] was determined as 10 fold lower.

The record behind these values is doi:10.64898/2025.12.22.695686.
